The values below come from patent publication US20110028686A1 (published 2011).

Like-named read-outs stand apart in the source and are kept apart here. Square brackets hold non-standard residues; d marks the D form. Primed or numbered codes have the meaning given here. Ends that are not written are not given here. * marks the point of attachment. acetamidofluorescein″ = acetamidofluorescein (5-iodoacetamidofluorescein attached to the C-terminal Cys); Fluorescein(5-NHCOCH2) = O=C(C*)Nc1ccc2c(c1)C(=O)OC21c2ccc(O)cc2Oc2cc(O)ccc21; pS = N[C@@H](COP(=O)(O)O)C(=O)O

Test [1] concerns the target T1, HisKIX (UniProt P45481 586-672).
T1 construct: range 586-672; the residue numbers fit mouse CBP; also called His-tagged CBP KIX domain; CBP KIX; not shown: amino-terminal hexahistidine tag and linker of pET15b
Briefly: FP with HisKIX.

Test [2] addresses T1, HisKIX. The test can be described thus: FP, fluorescein-labelled peptide titrated with HisKIX, 25 C.
In test [3] the target is T2, Human recombinant Bcl-2 (1-205), soluble GST-fusion (Santa Cruz Biotechnology) (human, UniProt P10415 1-205).
T2 construct: Bought; also called GST-Bcl-2; not shown: glutathione S-transferase (GST) fusion partner
Briefly: fluorescence emission titration, fluorescein-labelled peptide + serially diluted Bcl-2, 4 C, PBS.

The target of test [4] is T3, CBP KIX, wild type (Example 20) (UniProt P45481 586-665, limits assumed).
T3 construct: domain: KIX; also called wild type CBP KIX; CBP MX
The test can be described thus: FP, fluorescein-labelled PPKID4^P variant titrated with CBP KIX.

Test [5] addresses T3, CBP KIX, wild type (Example 20). The test can be described thus: FP with CBP KIX.
For test [6], the target named is carbonic anhydrase II (Sigma). The test can be described thus: FP, 50 nM fluorescein-labelled peptide titrated with carbonic anhydrase II, 25 C.
The target in test [7] is T1, HisKIX. Briefly: FP, fluorescein-labelled peptide titrated with HisKIX, 25 C. This is another data set of the same source.

T3 sequence (P45481 586-665 limits assumed): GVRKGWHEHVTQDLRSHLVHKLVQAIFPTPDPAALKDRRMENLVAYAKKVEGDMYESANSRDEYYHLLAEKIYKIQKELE
T2 sequence (P10415 1-205): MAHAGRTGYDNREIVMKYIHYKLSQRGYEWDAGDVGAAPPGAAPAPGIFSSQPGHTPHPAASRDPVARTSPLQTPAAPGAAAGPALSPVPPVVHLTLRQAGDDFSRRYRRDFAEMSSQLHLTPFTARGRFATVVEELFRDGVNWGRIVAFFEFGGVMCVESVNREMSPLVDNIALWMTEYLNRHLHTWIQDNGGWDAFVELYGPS
T1 sequence (P45481 586-672): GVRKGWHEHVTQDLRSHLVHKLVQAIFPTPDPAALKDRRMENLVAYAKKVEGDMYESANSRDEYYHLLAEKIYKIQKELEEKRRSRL
Sequence of carbonic anhydrase II (Sigma) (P00921 2-260): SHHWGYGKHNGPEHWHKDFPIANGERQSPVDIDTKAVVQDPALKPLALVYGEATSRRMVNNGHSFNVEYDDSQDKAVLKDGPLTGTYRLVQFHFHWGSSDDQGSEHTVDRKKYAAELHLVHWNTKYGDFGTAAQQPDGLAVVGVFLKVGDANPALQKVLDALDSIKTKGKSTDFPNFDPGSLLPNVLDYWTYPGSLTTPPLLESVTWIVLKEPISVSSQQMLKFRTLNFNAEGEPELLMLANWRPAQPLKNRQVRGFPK

B1: PPKID6^P (designed binder)
peptide: GISWPTFEGDDAPVRRL[pS]FFYILLDLYLDAPGVC(Fluorescein(5-NHCOCH2))-NH2
modifications: N-terminus assumed
SMILES: CC[C@H](C)[C@H](NC(=O)CN)C(=O)N[C@@H](CO)C(=O)N[C@@H](Cc1c[nH]c2ccccc12)C(=O)N1CCC[C@H]1C(=O)N[C@H](C(=O)N[C@@H](Cc1ccccc1)C(=O)N[C@@H](CCC(=O)O)C(=O)NCC(=O)N[C@@H](CC(=O)O)C(=O)N[C@@H](CC(=O)O)C(=O)N[C@@H](C)C(=O)N1CCC[C@H]1C(=O)N[C@H](C(=O)N[C@@H](CCCNC(=N)N)C(=O)N[C@@H](CCCNC(=N)N)C(=O)N[C@@H](CC(C)C)C(=O)N[C@@H](COP(=O)(O)O)C(=O)N[C@@H](Cc1ccccc1)C(=O)N[C@@H](Cc1ccccc1)C(=O)N[C@@H](Cc1ccc(O)cc1)C(=O)N[C@H](C(=O)N[C@@H](CC(C)C)C(=O)N[C@@H](CC(C)C)C(=O)N[C@@H](CC(=O)O)C(=O)N[C@@H](CC(C)C)C(=O)N[C@@H](Cc1ccc(O)cc1)C(=O)N[C@@H](CC(C)C)C(=O)N[C@@H](CC(=O)O)C(=O)N[C@@H](C)C(=O)N1CCC[C@H]1C(=O)NCC(=O)N[C@H](C(=O)N[C@@H](CSCC(=O)Nc1ccc2c(c1)C(=O)OC21c2ccc(O)cc2Oc2cc(O)ccc21)C(N)=O)C(C)C)[C@@H](C)CC)C(C)C)[C@@H](C)O
notes: also called PPKID6 (phosphorylated)
Take B1: in test [1], the “fold enhancement in affinity over unphosphorylated PPKID6” value turned out to be 2 fold and the “ΔΔG relative to unphosphorylated PPKID6” value was -0.5 kcal/mol. The Kd (in general, the constant that tells how readily two partners part at equilibrium) in test [2] stood at 624 nM.

B2: p4100 (designed binder)
peptide: GPSQPTYPGDDAPVEDLIRFVGRLLRYFGDEINRYC(5‑iodoacetamidofluorescein)-NH2
notes: As for p4099: amino terminal portion from aPP (e.g., residues 1-19); also called p4122 (labelled form, by order and mass)
Turning to B2, the Kd in test [3] was 401 nM.

B3: p4101 (designed binder)
peptide: GPSQPTYPGDDAPVEDLIRFVGRLLAYFGDDINRYC(5‑iodoacetamidofluorescein)-NH2
notes: As for p4099: amino terminal portion from aPP (e.g., residues 1-19); also called p4123 (labelled form, by order and mass)
Regarding B3, the Kd in test [3] is 811 nM.

B4: PPKID4^P F20A (designed binder)
peptide: GPSQPTYPGDDAPVRRL[pS]FAYILLDLYLDAPGVC(acetamidofluorescein″)-NH2
B4 returned a Kd in test [4] of 2550 nM. Besides, the “ΔΔG relative to wild type PPKID4^P” value in test [5] was 0.85 kcal/mol.

B5: PPKID4^P Y27A (designed binder)
peptide: GPSQPTYPGDDAPVRRL[pS]FFYILLDLALDAPGVC(acetamidofluorescein″)-NH2
In turn, B5 gave a Kd in test [4] of 3090 nM. Also, in test [5], the “ΔΔG relative to wild type PPKID4^P” value stood at 0.96 kcal/mol.

B6: PPKID4^P P5A (designed binder)
peptide: GPSQATYPGDDAPVRRL[pS]FFYILLDLYLDAPGVC(acetamidofluorescein″)-NH2
For the molecule B6, the dissociation constant Kd in test [4] is 1020 nM. For the same molecule, the “ΔΔG relative to wild type PPKID4^P” value in test [5] was determined as 0.3 kcal/mol.

B7: PPKID4^P L17A (designed binder)
peptide: GPSQPTYPGDDAPVRRA[pS]FFYILLDLYLDAPGVC(acetamidofluorescein″)-NH2
Turning to B7, in test [4], the affinity, expressed as Kd, was 680 nM. For the same molecule, in test [5], the “ΔΔG relative to wild type PPKID4^P” value was 0.07 kcal/mol.

B8: PPKID4^P P8A (designed binder)
peptide: GPSQPTYAGDDAPVRRL[pS]FFYILLDLYLDAPGVC(acetamidofluorescein″)-NH2
In turn, B8 registered a Kd in test [4] of 1070 nM. In test [5], the “ΔΔG relative to wild type PPKID4^P” value was 0.33 kcal/mol.

B9: PPKID4^P L28A (designed binder)
peptide: GPSQPTYPGDDAPVRRL[pS]FFYILLDLYADAPGVC(acetamidofluorescein″)-NH2
As to B9, the Kd in test [4] worked out at 830 nM. In addition, the “ΔΔG relative to wild type PPKID4^P” value in test [5] was 0.18 kcal/mol.

B10: PPKID4^P P2A (designed binder)
peptide: GASQPTYPGDDAPVRRL[pS]FFYILLDLYLDAPGVC(acetamidofluorescein″)-NH2
B10 showed a Kd in test [4] of 870 nM. In test [5], the “ΔΔG relative to wild type PPKID4^P” value came to 0.21 kcal/mol.

B11: PPKID4^P L24A (designed binder)
peptide: GPSQPTYPGDDAPVRRL[pS]FFYILADLYLDAPGVC(acetamidofluorescein″)-NH2
B11 had an equilibrium dissociation constant (Kd) in test [4] of 1160 nM. The “ΔΔG relative to wild type PPKID4^P” value in test [5] is 0.38 kcal/mol.

B12: p4102 (designed binder)
peptide: GPSQPTYPGDDAPVEDLIRFVSRLRYIADLINRYC(5‑iodoacetamidofluorescein)-NH2
notes: Mutant with a single amino acid deletion in the alpha-helix; Amino terminal portion from aPP (e.g., residues 1-19); also called p4124 (labelled form, by order and mass)
B12: in test [3], the dissociation constant (Kd) amounted to 3700 nM.

B13: peptide C^U (peptide)
peptide: RRLSFFYILLDLYLDAPGVC(acetamidofluorescein)-NH2
notes: also called Peptide C (unphosphorylated)
Regarding B13, in test [1], the “ΔΔG relative to KID-B^U” value was more than -1.5 kcal/mol. Also, the values for the Kd in test [6], in test [7] and in test [2] were 66000 nM, 21500 nM and 21500 nM, respectively.
